Molecular target: C. trachomatis PmpD fragment D^269–918, His-tagged (C. trachomatis serovar E) (UniProt O84818)
Test: native gel or EMSA; Blue Native-PAGE (Native PAGE Novex 3–12% Bis-Tris), 1 μg of each renatured His-tagged Pmp fragment alone; Coomassie staining and anti-His immunoblot

C. trachomatis PmpD fragment D^269–918, His-tagged (from UniProt O84818 269-918) (domain or fragment)
stoichiometry N: 2

— paper PMC8326573
